The term Kd denotes the constant that tells how readily two partners part at equilibrium.

Experiment [1] has as its target T1, factor H binding protein (fHbp) variant 2.16, recombinant (Neisseria meningitidis 961-5945, UniProt Q6VS19, strain).
T1 construct: also called fHbp v2.16; fHbp v2; source: E. coli BL21(DE3), purified (Ni-NTA, SEC when necessary)
The experiment can be described thus: SPR. The following applies: both partners purified.

For experiment [2], the target named is T2, factor H binding protein (fHbp) variant 1.1, recombinant (Neisseria meningitidis MC58, fHbp v1.1).
T2 construct: also called fHbp v1.1; fHbp v1; source: E. coli BL21(DE3), purified (Ni-NTA, SEC when necessary); not shown: His6, C-terminal, kept
T2 chain: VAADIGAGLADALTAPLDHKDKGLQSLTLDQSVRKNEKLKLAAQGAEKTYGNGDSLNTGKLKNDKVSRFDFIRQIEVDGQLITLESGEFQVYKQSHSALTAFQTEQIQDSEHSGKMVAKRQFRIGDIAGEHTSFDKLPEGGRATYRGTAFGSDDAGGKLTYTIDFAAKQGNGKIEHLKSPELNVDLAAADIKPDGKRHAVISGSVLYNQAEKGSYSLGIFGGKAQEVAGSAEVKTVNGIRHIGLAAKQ
The experiment can be described thus: SPR. The following applies: both partners purified.

The target of experiment [3] is T3, factor H binding protein (fHbp) variant 3.28, recombinant (Neisseria meningitidis M1239, fHbp v3.28, UniProt Q19KF7, strain).
T3 construct: also called fHbp v3.28; fHbp v3; source: E. coli BL21(DE3), purified (Ni-NTA, SEC when necessary)
The experiment is described as follows: SPR. Particulars: both partners purified.

In experiment [4] the target is T4, native fHbp v2.16 on live N. meningitidis strain UK104 (M08-240104) (Neisseria meningitidis, UniProt Q6VS19).
T4 construct: source: endogenous, on live N. meningitidis M08-240104 (UK104)
The experiment is described as follows: flow cytometry on cells. Particulars: one partner purified. A general note: In flow cytometry, cells or beads pass a laser one at a time.

The target in experiment [5] is T2, factor H binding protein (fHbp) variant …. The experiment can be described thus: BLI; Octet 384 Red, 30 C; mAb 4B3 captured on Anti-Human Fc biosensors, wild type and mutant fHbp in solution, 150 nM to 1 nM, in 1 x PBS, 1% (w/v) BSA; triplicate. The following applies: both partners purified. For orientation: In BLI a coated tip is dipped into the sample, and binding shifts an interference pattern.

Experiment [6] concerns the target T4, native fHbp v2.16 on live N. …. The experiment is described as follows: flow cytometry on cells; live meningococci (MC58, UK104, UK320) in mid-log phase incubated with mAbs at 10 ug/ml; detected with FITC anti-human IgG. Particulars: one partner purified.

B1: human anti-fHbp mAb 4F9 (antibody, V domains shown)
VH: QVQLVQSGGGLVKPGGSLRLSCAASGFPFSSYYMSWIRQAPGKGLEWVSDINNSGNVKEYADFVKGRLTISRDNVKNSMYLHMNSLRVEDTAVYYCARNRGRFDVWGQGTLVTVSA
VL: EIVMTQSPGTLSLSPGETATLSCRASQMISSPFLAWYQQRRGQAPRLLIYGASTRATDTPDRFRGSGSGTDFILTISRLEPEDFAVYYCQHYDDSPFTFGQGTKLEIK
notes: IgG1; source: Expi293, transient transfection, purified (protein G Sepharose)
Turning to B1, the Kd in experiment [1] stood at 0.0285 nM; in experiment [2], 0.077 nM; in experiment [3] it was 0.24 nM. For the same molecule, the binding result in experiment [4] is given as “binds”.

B2: human anti-fHbp mAb 3G7 (antibody, V domains shown)
VH: EVQLLQSGGGLVKPGGSLRLSCAASGFPFSSYYMSWIRQAPGKGLEWVSDINNSGNVKEYADFVKGRLTISRDNVKNSMYLHMNSLRVEDTAVYYCARNRGRFDVWGQGTLVTVSA
VL: EIVLTQSPGTLSLSPGETATLSCRASQMISSPFLAWYQQRRGQAPRLLIYGASTRATDTPDRFRGSGSGTDFILTISRLEPEDFAVYYCQYYDDSPFTFGQGTKLEIK
notes: as for B1
For the molecule B2, the Kd in experiment [1] was 0.0526 nM; in experiment [2], 0.344 nM; in experiment [3] it was 0.68 nM. In experiment [4], the binding result is reported as “binds”.

B3: human anti-fHbp mAb 4B3 (IgG1) (antibody, V domains shown)
VH: QVQLVQSGGGLVKPGGSLRLSCAASGFPFSSYYMSWIRQAPGKGLEWVSDINNSGNVKEYADFVKGRLTISRDNVKNSMYLHMNSLRVEDTAVYYCARNRGRFDVWGQGTLVTVSA
VL: EIVMTQSPGTLSLSPGETATLSCRASQMISSPFLAWYQQRRGQAPRLLIYGASTRATDTPDRFRGSGSGTDFILTISRLEPEDFAVYYCQYYDDSPFTFGQGTKLEIK
notes: as for B1
B3: the Kd in experiment [5] turned out to be 1.7 nM; in experiment [1], 0.029 nM; in experiment [2], 0.328 nM; in experiment [3] it was 0.633 nM. Besides, the binding result in experiment [4] is “binds”.

B4: human anti-fHbp mAb 2C8 (antibody, V domains shown)
VH: QVQLVQSGAEVKKPGSSVKVSCKASGGTVINYPISWVRQVPGQGLEWMGRLVPLFGTPNYGQKFQGRITITADKSTSAAYMELIGLKSEDTAVYYCARGDTAMAPFDYWGHGTLVTVSS
VL: QLVLTQPPSVSVAPGKTATITCGGNNVGGKTVHWYQQKPGQAPVLVMSYDSDRPSGIPERFSGSNSGNTATLTISRVEAEDEADYYCQVWHGNDDHWVFGGGTKLTVL
notes: as for B1
Take B4: the Kd in experiment [1] turned out to be 0.0525 nM; in experiment [2] it was 0.34 nM; in experiment [3], 0.46 nM.

B5: human anti-fHbp mAb 5C6 (antibody, V domains shown)
VH: EVQLLESGGGLVQPGGSLRLSCAASGFTFSSYAMSWVRQTPGKGLEWVSAISGSGGSTYYADSVQGRFTISRDNSKNTLYLQINSLRAEDTAVYYCAKDPGFVLSSGWYYFDYWGQGTLVTVSS
VL: not shown
notes: as for B1
With B5, the binding result in experiment [6] is recorded as “binds”. The Kd in experiment [1] came to 1.7 nM; in experiment [2], 1.08 nM; in experiment [3] it was 2.03 nM.

B6: human anti-fHbp mAb 4B10 (antibody, V domains shown)
VH: EVQLVESGGGLVKPGGSLRLSCAASGFAFSTYSLHWVRQAPGKGLEWVSAITSSGSFLYYADSLKGRFTVSRDNAKNSLFLQMNSLRAGDTAVYYCARALQVEDGFPMFSGLDVWGQGTTVTVSS
VL: QTVVTQPPSVSEAPRQRVAISCSGSSSNIGDNSVSWYQQLPGKAPKLLIYDDDLLPSGVSDRFSASKSGTSASLAISGLQSEDEAEYYCAAWDDSLKGVVFGGGTKLTVL
notes: as for B1
In the case of B6, the Kd in experiment [2] worked out at 0.296 nM; in experiment [3] it was 1.67 nM.

B7: human anti-fHbp mAb 1D1 (antibody, V domains shown)
VH: QVQLVGSGGGLVKPGGSLRLSCAASGFTFSSYTMNWVRQAPGKGLEWVSSISSSSGYIYYADSLKGRFTISRDDAKNSLFLQMNSLRAEDTAVYFCARDKVLPAPPGFYGLDVWGPGTTVTVSS
VL: QSVVTQPPSVSAAPGQKVTISCSGSSSNIEDNFVSWYQQLPGTAPKLLIYDNNQRPSGIPDRFSGSKSGTSATLGITGLQTGDEADYYCATWDNSLSARVFGGGTKLTVL
notes: as for B1
Turning to B7, the equilibrium dissociation constant (Kd) in experiment [1] is 2.61 nM; in experiment [2], 0.893 nM; in experiment [3], 1.72 nM.

B8: human anti-fHbp mAb 3F1 (antibody, V domains shown)
VH: EVHLVESGGGLVKPGGSLRLSCAASGFTFSSYTMNWVRQAPGKGLEWVSSISSSSGYIYYADSLKGRFTISRDNAKNSLFLQMNSLRAEDTAVYFCARDKVLPAPPGFYGLDVWGPGTTVTVSS
VL: QSVVTQPPSVSAAPGQKVTISCSGSSSNIEDNFVSWYQQLPGTAPKLLIYDNNQRPSGIPDRFSGSKSGTSATLGITGLQTGDEADYYCATWDNSLSARVFGGGTKLTVL
notes: as for B1
Take B8: the Kd in experiment [1] is 11.3 nM; in experiment [2], 1.04 nM; in experiment [3], 1.8 nM.

B9: human anti-fHbp mAb 1E10 (antibody, V domains shown)
VH: QVQLVESGGDLVKPGGSLRLSCVASGFTFSSYTMNWVRQAPGKGLEWVSSITSSSSFTYYADSVKGRFIISRDNAKNSLSLQMNNLRVEDTATYYCARRKDSSDYDWYYYYGMDVWGLGTTVTVSS
VL: QSVVTQPPSVSAAPGQKVTISCSGSSSNIGDNYMSWYQQIPGTAPKLLIFDNDQRPSGIPDRFSASKSGTSATLDITGFQTGDEADYYCGTWDSGLSAPVFGGGTKLTVL
notes: as for B1
For the molecule B9, the Kd turned out to be 1.4 nM in experiment [1], 1.54 nM in experiment [2] and 1.27 nM in experiment [3].

B10: human anti-fHbp mAb 2G1 (antibody, V domains shown)
VH: QVQLVESGGDLVKPGGSLRLSCVASGFTFSSYTMNWVRQAPGKGLEWVSSITSSSSFTYYADSVKGRFIISRDNAKNSLSLQMNNLRVEDTATYYCARRKDSSDYDWYYYYGMDVWGLGTTVTVSS
VL: QSVLTQPPSVSAAPGQKVTISCSGSSSNIGDNYMSWYQQIPGTAPKLLIFDNDQRPSGIPDRFSASKSGTSATLDITGFQTGDEADYYCGTWDSGLSAPVFGGGTKLTVL
notes: as for B1
B10: the Kd was 1.7 nM in experiment [1], 1.08 nM in experiment [2] and 1.75 nM in experiment [3].

B11: human anti-fHbp mAb 3B7 (antibody, V domains shown)
VH: EVQLVQSGAEVKKPGSSVKVSCKASGDTFSNYPISWVRQAPGQGLEWMGGIIPIFGTANYAQKFQGRVTITADESTSTPYMELSSLRSEDTAVYYCARGDTAMAPFDYWGQGTLVTVSS
VL: SYVLTQPPSVSVAPGKTARITCGGNSIGSKSVHWYQQKPGQAPVLVIYYDSDRPSGVPERISGSNSGNTATLTISRVEAGDEADYYCQVWDSSSDSWVFGGGTKLTVL
notes: source: Expi293, transient transfection, purified (protein G Sepharose)
Regarding B11, the Kd in experiment [1] is 0.551 nM; in experiment [2], 2.6 nM; in experiment [3], 2.2 nM.

B12: human anti-fHbp mAb 5F12 (antibody, V domains shown)
VH: EVQLVESGGDLVKPGGSLRLSCAASGFTFSNYTMNWVRQAPGKGLEWVSSITSSSSFKYYADSVKGRFTISRDNAKNSVFLQMNSLRAEDTAIYYCARRIDSSDQDWFYYYGMDVWGLGTTVTVSS
VL: QSVLTQPPSVSAAPGQRVTISCSGSSSNIGDNYISWYQQLPGTAPKLLIYDNDQRPSGTPDRFSASKSGTSATLGVTGLQTGDEADYYCGTWDSSLNAPVFGSGTKVTVL
notes: as for B1
As for B12, the dissociation constant (Kd) was 2.75 nM in experiment [1], 1.01 nM in experiment [2] and 1.75 nM in experiment [3].

Source of the values: PMC7556464, “4CMenB vaccine induces elite cross-protective human antibodies that compete with human factor H for binding to meningococcal fHbp” (PLoS Pathogens, 2020).
